Measurements taken from paper PMC5587665.

Assays:
[1] = molecular target: GTP-γS-tubulin-dimer (porcine brain tubulin), P02550;Q767L7; assay: DLS; details: room temperature; 1:1 mixture
[2] = molecular target: GTP-γS-tubulin-dimer (porcine brain tubulin), P02550;Q767L7; assay: SEC-MALS
[3] = molecular target: GTP-γS-tubulin-dimer (porcine brain tubulin) (porcine) (UniProt P02550); assay: SEC; size-exclusion chromatography at 4 °C; tubulin with the GTP analog GTP-γS; 1:1 mixture of each 1 mM (so in the source) CP525 and tubulin-dimer; fractions checked by SDS-PAGE

In the case of “CP525 (7 x His-tag and human CRMP2 residues 1-525) (from UniProt Q16555) T246A; N247A”, the other: %Polyd (polydispersity of the mixture) [1] is reported as 52%, the other: MW-R (of the mixture) [1] is reported as 524 kDa and the other: Rh (hydrodynamic radius of the mixture) [1] is reported as 8.6 nm. For the same substance, the other: Molar mass of the mixture, Peak 1 [2] was 214 kDa and the other: Molar mass of the mixture, Peak 2 [2] was 113 kDa.
Substance “CP525 (7 x His-tag and human CRMP2 residues 1-525) (from UniProt Q16555 1-525) (domain or fragment)” has a stoichiometry N (CP525:tubulin-dimer) [3] of 1.
“CP525 (7 x His-tag and human CRMP2 residues 1-525) (from UniProt Q16555) K483A; R485A; R487A” gave an other: %Polyd (polydispersity of the mixture) [1] of 64.9%, an other: MW-R (of the mixture) [1] of 538 kDa and an other: Rh (hydrodynamic radius of the mixture) [1] of 8.8 nm. The other: Molar mass of the mixture, Peak 1 [2] was 95.9 kDa and the other: Molar mass of the mixture, Peak 2 [2] was 86.2 kDa.
